Our source for the binding result and Kd values is patent US20260061032A1 (GI INNOVATION, published 2026).

The target of one experiment is T1, hIL-2Rα (human, UniProt P01589 22-213).
T1 construct: also called hIL-2Ra; IL-2 receptor alpha chain
T1 sequence (looked up): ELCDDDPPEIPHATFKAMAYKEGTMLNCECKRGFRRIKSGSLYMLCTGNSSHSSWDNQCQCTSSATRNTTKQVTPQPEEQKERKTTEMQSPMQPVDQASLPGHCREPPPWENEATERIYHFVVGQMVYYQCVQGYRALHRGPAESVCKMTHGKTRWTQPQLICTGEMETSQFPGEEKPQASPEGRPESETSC
As to the kind of experiment: SPR, Biacore T200; hIL-2Rα on CM5 chip through His capture kit, binder as analyte. The procedure:
(§1) To quantitatively analyze the binding affinities to CD73 and IL-2 receptors of […] and GI-108B1, in which the anti-CD73 antibody that specifically binds to CD73 was linked to the IL-2 variant, and Aldesleukin (trade name: PROLEUKIN®, Novartis), the binding affinities were measured using SPR (surface plasmon resonance). Using a BIACORE™ T200 instrument (Cytiva), the binding affinities of GI-108A1 (AHF10240), GI-108A1 (AHP04167) and GI-108B1 to hCD73, cyCD73, mCD73, hIL-2Rα, hIL-2Rβ, and hIL-2Rβγ were analyzed. Oleclumab (Astrazeneca), produced on order from Ybiologics, Inc., was used as a control.
(§2) To analyze the binding affinity to hIL-2Ra, hIL-2Ra was […] immobilized on Sensor Chip CM5 using a His capture kit (Cytiva, USA). Each of GI-108A1 (AHF10240), GI-108A1 (AHP04167), GI-108B1 and PROLEUKIN®, diluted in HBS-EP+ buffer, was then applied for 1 minute, followed by analysis of association and dissociation. In addition, the binding affinities to hIL-2RB and hIL-2Rβγ were measured by a three-step analysis method including treating Sensor Chip SA (Cytiva, USA) with biotinylated CD73, and then binding each of GI-108A1 (AHF10240), GI-108A1 (AHP04167), GI-108B1 and PROLEUKIN® to CD73, followed by treatment with each of hIL-2RB and hIL-2Rβγ diluted in HBS-P+ buffer (Cytiva, USA). For hIL-2RB, association was performed for 1 minute and dissociation for 1 minute, and for hIL-2Rβγ, association was performed for 5 minutes and dissociation for 2 hours at each concentration, in a single cycle kinetics analysis. Each sensorgram was normalized and subtracted compared to a blank cell to calculate affinity.
For orientation: SPR reads the build-up and loss of mass on a sensor chip optically.

The next experiment concerns the target T2, hIL-2Rβγ (human, UniProt P14784 27-239; P31785 23-254).
T2 construct: Soluble beta/gamma heterodimer used as SPR analyte
T2 sequence (looked up) 1: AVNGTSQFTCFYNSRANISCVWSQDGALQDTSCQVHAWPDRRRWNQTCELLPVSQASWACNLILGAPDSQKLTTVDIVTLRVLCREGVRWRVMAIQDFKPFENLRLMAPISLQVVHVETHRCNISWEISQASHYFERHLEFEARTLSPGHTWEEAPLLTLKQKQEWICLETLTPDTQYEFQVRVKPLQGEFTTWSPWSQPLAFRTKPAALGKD
T2 sequence (looked up) 2: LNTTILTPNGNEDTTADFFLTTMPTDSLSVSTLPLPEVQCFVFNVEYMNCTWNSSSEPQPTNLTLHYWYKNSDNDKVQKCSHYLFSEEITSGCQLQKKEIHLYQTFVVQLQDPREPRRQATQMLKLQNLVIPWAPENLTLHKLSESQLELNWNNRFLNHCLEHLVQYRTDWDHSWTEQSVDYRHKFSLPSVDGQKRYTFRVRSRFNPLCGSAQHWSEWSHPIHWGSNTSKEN
As to the kind of experiment: SPR, Biacore T200; biotinylated CD73 on SA chip, binder bound to CD73, hIL-2Rβγ as analyte, single cycle kinetics. The procedure:
as §1, §2

B1: GI-108A1 (AHP04167) (Anti-CD73 sdAb-hIgG4 Fc-hIL2v3 fusion protein dimer) (Fc fusion)
chain: EVQLVESGGGLVQAGGSLRLSCVVSGRTFSNYHMGWFRQAPGKEREFVAVIGRSGGPTYYADSVKGRFTISRDNAKNTVYLQMNSLKPEDTAVYYCAGDWRNSDSPSKLKPVYDYWGQGTQVTVSSGGGGSAESKYGPPCPPCPAPEAAGGPSVFLFPPKPKDQLMISRTPEVTCVVVDVSQEDPEVQFNWYVDGVEVHNAKTKPREEQFNSTYRVVSVLTVLHQDWLNGKEYKCKVSNKGLPSSIEKTISKAKGQPREPQVYTLPPSQEEMTKNQVSLTCLVKGFYPSDIAVEWESNGQPENNYKTTPPVLDSDGSFFLYSRLTVDKSRWQEGNVFSCSVLHEALHNHYTQKSLSLSLGGGGGSGGGGSGGGGSAPTSSSTKKTQLQLEHLLLDLQMILNGINNYKNPKLTAMLTAKFYMPKKATELKHLQCLERELKPLEEVLNLAQSKNFHLRPRDLISNINVIVLELKGSETTFMCEYADETATIVEFLNRWITFCQSIISTLT
notes: Homodimer through hinge cysteines
Usually Kd stands for the concentration at which binding is half-saturated. On to B1, for which the binding result with hIL-2Rα is on record as “no binding”. This molecule came in with a Kd in the experiment with hIL-2Rβγ of 0.327 nM.

B2: GI-108A1 (AHF10240) (Anti-CD73 sdAb-hIgG4 Fc-hIL2v3 fusion protein dimer) (Fc fusion)
chain: EVQLVESGGGVVQTGGSLRLSCAASGRTFTHLAMGWFRQAPGKEREFVAAISNSGAGTQFADSVKGRFTISRDNAKNTVYLQMNSLKPEDTAVYYCAADWGTRDSPSKLNAVYDYWGRGTQVTVSSGGGGSAESKYGPPCPPCPAPEAAGGPSVFLFPPKPKDQLMISRTPEVTCVVVDVSQEDPEVQFNWYVDGVEVHNAKTKPREEQFNSTYRVVSVLTVLHQDWLNGKEYKCKVSNKGLPSSIEKTISKAKGQPREPQVYTLPPSQEEMTKNQVSLTCLVKGFYPSDIAVEWESNGQPENNYKTTPPVLDSDGSFFLYSRLTVDKSRWQEGNVFSCSVLHEALHNHYTQKSLSLSLGGGGGSGGGGSGGGGSAPTSSSTKKTQLQLEHLLLDLQMILNGINNYKNPKLTAMLTAKFYMPKKATELKHLQCLERELKPLEEVLNLAQSKNFHLRPRDLISNINVIVLELKGSETTFMCEYADETATIVEFLNRWITFCQSIISTLT
notes: as for B1
As to B2, the binding result in the experiment with hIL-2Rα is recorded as “no binding”. In the experiment with hIL-2Rβγ, the Kd was 0.417 nM.

B3: GI-108B1 (Anti-CD73 Ab-hIgG4 Fc-hIL2v3 fusion protein dimer) (antibody)
heavy: QVQLVQSGAEVKKPGSSVKVSCKFSGGSFTSYSFSWVRQAPGQGLEWMGRIIPVLTTTDYAQKFRDRVTITADESTSTAYMELSGLRSEDTAVYYCASGLKKNWYFDLWGRGALITVSSASTKGPSVFPLAPCSRSTSESTAALGCLVKDYFPEPVTVSWNSGALTSGVHTFPAVLQSSGLYSLSSVVTVPSSSLGTKTYTCNVDHKPSNTKVDKRVESKYGPPCPPCPAPEAAGGPSVFLFPPKPKDQLMISRTPEVTCVVVDVSQEDPEVQFNWYVDGVEVHNAKTKPREEQFNSTYRVVSVLTVLHQDWLNGKEYKCKVSNKGLPSSIEKTISKAKGQPREPQVYTLPPSQEEMTKNQVSLTCLVKGFYPSDIAVEWESNGQPENNYKTTPPVLDSDGSFFLYSRLTVDKSRWQEGNVFSCSVLHEALHNHYTQKSLSLSLGGGGGSGGGGSAPTSSSTKKTQLQLEHLLLDLQMILNGINNYKNPKLTAMLTAKFYMPKKATELKHLQCLERELKPLEEVLNLAQSKNFHLRPRDLISNINVIVLELKGSETTFMCEYADETATIVEFLNRWITFCQSIISTLT
light: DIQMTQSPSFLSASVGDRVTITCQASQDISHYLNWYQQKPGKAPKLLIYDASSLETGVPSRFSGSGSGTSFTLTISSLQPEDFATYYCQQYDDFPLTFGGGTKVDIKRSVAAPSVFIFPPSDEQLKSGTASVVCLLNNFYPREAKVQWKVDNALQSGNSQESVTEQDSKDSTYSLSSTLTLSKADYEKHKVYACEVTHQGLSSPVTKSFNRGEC
notes: IgG4 anti-CD73 antibody with the IL-2 variant fused to the C-terminus of each heavy chain; expressed in CHO cells, purified as a dimer
B3: the binding result with hIL-2Rα was “no binding”. Moreover, the Kd with hIL-2Rβγ was 0.2 nM.
